Columns and labels:
[1] = molecular target: T1, human B7-H4 expressed on cells (CHOK-1 B7-H4, SK-BR3, CAMA-1, MDA-MB-468, MX-1, OVCAR-3) (human, UniProt Q7Z7D3 25-282); assay: FACS on MDA-MB-468 cells, 100 nM antibody, FITC anti-mouse IgG Fc detection (FL1-H)
T1 construct: whole, on cells; also called B7-H4 expressed cell line; B7-H4 positive cancer cell lines
T1 sequence (looked up): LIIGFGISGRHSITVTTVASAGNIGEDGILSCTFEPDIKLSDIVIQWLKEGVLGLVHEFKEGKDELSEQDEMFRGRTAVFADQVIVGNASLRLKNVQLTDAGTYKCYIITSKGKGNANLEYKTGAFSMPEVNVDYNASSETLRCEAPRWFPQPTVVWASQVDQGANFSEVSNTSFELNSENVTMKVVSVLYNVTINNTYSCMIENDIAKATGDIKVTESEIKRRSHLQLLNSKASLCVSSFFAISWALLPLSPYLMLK
Protocol: (§1) To evaluate the antigen binding property, the mouse antibody candidates generated according to Preparation Example 1-1 were analyzed for their bindings to B7-H4 expressed cells (SK-BR3, CAMA-1 and MDA-MB-468) or B7-H4 negative expressed cell (PANC-1). Briefly, each cells were treated with the 100 nM of indicated antibodies at 4° C. for 1 hr. After washing by FACS buffer (1% BSA in PBS), Cells were incubated with the FITC anti-mouse IgG Fc antibody at 4° C. for 1 hr and then subjected to FACS analysis. As shown FIG. 1, anti-B7-H4 mouse antibodies bound to B7-H4 expressed SK-BR3, CAMA-1 and MDA-MB-468 cell lines but not B7-H4 negative PANC-1. […] Based on the ranking results, 16E3H3 clone was selected for humanization.

[2] = molecular target: T1, human B7-H4 expressed on cells (CHOK-1 …); assay: FACS on CAMA-1 cells, 100 nM antibody, FITC anti-mouse IgG Fc detection (FL1-H)
Protocol: as §1

[3] = molecular target: T1, human B7-H4 expressed on cells (CHOK-1 …); assay: FACS on SK-BR3 cells, 100 nM antibody, FITC anti-mouse IgG Fc detection (FL1-H)
Protocol: as §1

B7-H6 = molecular target: T2, B7-H6; assay: ELISA on plate-coated B7-H6 (100 ng/well), three-fold dilutions of B10317 from 100 nM
T2 construct: one of the 'other B7-family proteins'; Commonly known as NCR3LG1
T2 chain: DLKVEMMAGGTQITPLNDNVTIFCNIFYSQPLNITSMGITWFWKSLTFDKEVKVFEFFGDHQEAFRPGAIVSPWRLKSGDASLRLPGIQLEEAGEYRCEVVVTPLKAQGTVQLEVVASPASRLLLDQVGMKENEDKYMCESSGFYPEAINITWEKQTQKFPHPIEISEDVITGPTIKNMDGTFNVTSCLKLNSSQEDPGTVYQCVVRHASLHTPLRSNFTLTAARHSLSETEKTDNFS
Protocol: (§2) To confirm the specific binding of anti-B7-H4/anti-4-1BB bispecific antibody against B7-H4, B10317 subjected to ELISA test. Microtiter plates were coated with each protein (100 ng/well) at 4° C. overnight, then blocked with 200 μl/well PBSB (1% (w/v) BSA in PBS). Three-fold dilutions of B10317 starting from 100 nM was added to each well and incubated at 37° C. for 1 hours. The plates were washed with PBST (0.05% (v/v) Tween20 in PBS) and then incubate for 1 hours at 37° C. with 100 ul of Anti-Fc HRP (Dilution factor, 1:30000) or Anti-Fab HRP (Dilution factor, 1:20000). The plates were washed with PBST (0.05% (v/v) Tween20 in PBS) and then the plates were developed with TMB substrate and analyzed by spectrophotometer at 450-650 nm.

B7-H2 = molecular target: T3, B7-H2; assay: ELISA on plate-coated B7-H2 (100 ng/well), three-fold dilutions of B10317 from 100 nM
T3 construct: one of the 'other B7-family proteins'; Commonly known as ICOS ligand
T3 chain: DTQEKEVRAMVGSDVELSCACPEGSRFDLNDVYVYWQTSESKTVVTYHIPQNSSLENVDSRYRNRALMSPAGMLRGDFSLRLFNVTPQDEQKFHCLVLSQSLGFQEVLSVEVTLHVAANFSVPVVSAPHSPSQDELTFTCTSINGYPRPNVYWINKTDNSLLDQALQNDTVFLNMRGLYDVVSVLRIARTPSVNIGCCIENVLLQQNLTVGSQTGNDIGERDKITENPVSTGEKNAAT
Protocol: as §2

[4] = molecular target: T4, Recombinant 4-1BB (Monkey) protein (Monkey); assay: SPR, antibody captured on Protein A chip, 4-1BB 250 nM to 15.625 nM as analyte
T4 construct: also called monkey 4-1BB
Protocol: (§3) In the SPR experiment, the anti-B7-H4/anti-4-1BB bispecific antibody obtained in Preparation Example 3 was captured on flow-cells 2, 3 and 4, keeping the flow-cell 1 as reference, on a Protein A Chip on which an anti-B7-H4/anti-4-1BB Bispecific antibody (B10317) has been immobilized by amine coupling. Recombinant B7-H4 (Human/Monkey) or 4-1BB (Human/Monkey) protein was flowed across the chip at concentration range from 100 nM to 6.25 nM for B7-H4 or 250 nM to 15.625 nM for 4-1BB at 30 μl/min for 60 seconds, followed by a dissociation phase of 180 seconds. Regeneration was performed with 10 mM Glycine-HCl (pH 1.5).

[5] = molecular target: T1, human B7-H4 expressed on cells (CHOK-1 …); assay: FACS on CAMA-1 cells, FITC anti-human IgG detection; table under the graph prints no unit, x axis is Ab, Log[nM]
Protocol: (§4) To evaluate the tumor antigen binding property, B10317 bispecific antibody was analyzed for its binding to B7-H4-expressing mammalian cells by FACS. Briefly, B7-H4 positive cells (MX-1 and CAMA-1) were incubated with B10317 antibodies. After wash by FACS buffer (1% BSA in PBS), the FITC-anti-human IgG antibody was added to each well and incubated at 4° C. for 45 min. The MFI of FITC was evaluated by FACS Calibur.

B7-2 = molecular target: T5, B7-2; assay: ELISA on plate-coated B7-2 (100 ng/well), three-fold dilutions of B10317 from 100 nM
T5 construct: one of the 'other B7-family proteins'; Commonly known as CD86
T5 chain: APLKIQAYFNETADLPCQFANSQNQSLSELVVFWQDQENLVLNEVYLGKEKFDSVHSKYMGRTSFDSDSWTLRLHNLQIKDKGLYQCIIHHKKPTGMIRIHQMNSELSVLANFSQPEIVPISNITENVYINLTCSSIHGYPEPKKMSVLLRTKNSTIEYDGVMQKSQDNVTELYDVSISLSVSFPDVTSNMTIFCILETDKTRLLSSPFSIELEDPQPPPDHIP
Protocol: as §2

recombinant human B7-H4 = molecular target: T6, recombinant human B7-H4 (human, UniProt Q7Z7D3 29-258, limits assumed); assay: SPR, antibody captured on Protein A chip, B7-H4 100 nM to 6.25 nM as analyte
T6 construct: also called Recombinant B7-H4 (Human)
T6 sequence (looked up): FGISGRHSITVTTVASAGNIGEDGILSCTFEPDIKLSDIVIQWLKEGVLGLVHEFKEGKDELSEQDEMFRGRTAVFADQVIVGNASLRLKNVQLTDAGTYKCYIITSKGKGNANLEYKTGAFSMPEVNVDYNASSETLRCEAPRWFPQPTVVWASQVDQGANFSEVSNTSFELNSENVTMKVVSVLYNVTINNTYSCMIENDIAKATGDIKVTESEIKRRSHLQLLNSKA
Protocol: as §3

[6] = molecular target: T7, Recombinant B7-H4 (Monkey) protein (Monkey); assay: as above
T7 construct: also called monkey B7-H4
Protocol: as §3

[7] = molecular target: T1, human B7-H4 expressed on cells (CHOK-1 …); assay: FACS on MX-1 cells, FITC anti-human IgG detection; table under the graph prints no unit, x axis is Ab, Log[nM]
Protocol: as §4

[8] = molecular target: 4-1BB on GloResponse NFκB-luc2/4-1BB Jurkat cells (UniProt Q07011 24-255, limits assumed); assay: cell-based or functional assay
4-1BB on GloResponse NFκB-luc2/4-1BB Jurkat cells, sequence (Q07011 24-255 limits assumed): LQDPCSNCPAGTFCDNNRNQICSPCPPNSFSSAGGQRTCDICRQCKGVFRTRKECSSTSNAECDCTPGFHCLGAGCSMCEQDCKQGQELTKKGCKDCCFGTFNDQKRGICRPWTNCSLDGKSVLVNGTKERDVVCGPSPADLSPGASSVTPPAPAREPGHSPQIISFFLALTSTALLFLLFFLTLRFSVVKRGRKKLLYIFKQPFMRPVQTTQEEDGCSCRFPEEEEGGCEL

B7-1 = molecular target: T8, B7-1; assay: ELISA on plate-coated B7-1 (100 ng/well), three-fold dilutions of B10317 from 100 nM
T8 construct: one of the 'other B7-family proteins'; Commonly known as CD80
T8 chain: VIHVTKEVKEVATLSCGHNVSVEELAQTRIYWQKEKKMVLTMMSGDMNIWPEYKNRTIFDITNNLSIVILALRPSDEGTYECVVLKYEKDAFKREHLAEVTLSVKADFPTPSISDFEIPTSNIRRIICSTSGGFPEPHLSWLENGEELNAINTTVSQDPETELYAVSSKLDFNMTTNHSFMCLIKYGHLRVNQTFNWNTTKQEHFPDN
Protocol: as §2

B1: 23B6C2 (mouse monoclonal anti-B7-H4 antibody) (antibody, V domains shown)
VH: QVTLKESGPGILQPSQTLSLTCSFSGFSLSTFGMGVGWIRQPSGKGLEWLAHIWWDDDKYYNSALKSRLTISKETSKNQIFLKIANVDTTDTATYYCVRKDYYGYRGFAYWGQGTLVTVSA
VL: QLVLTQSSSASFSLGASAKLTCTLSSQHTTYTIEWYQQQPLKPPKYVMELKKDGSHSTGDGIPDRFSGSSSGADRYLCISNIQPEDEAIYICGVGDTIKEQFVYVFGGGTKVTVL
notes: Mouse hybridoma antibody, detected with anti-mouse IgG Fc; also called 23B6C2 (from mouse)
An MFI [1] of 22, an MFI [2] of 47.4 and an MFI [3] of 7.85 were found for B1 in this work.

B2: 16E3H3 (mouse monoclonal anti-B7-H4 antibody) (antibody, V domains shown)
VH: QIQLVHSGPELKKPGETVKISCKASGYPFTTYGMNWVKQAPGKGLKWMGWIDTYSGVPTYADDFKGRFAFSLETSASTAYLQINNLKNEDTATYFCARRSFWYFDVWGTGTTVTVSS
VL: DVVMTQTPLSLPVSLGDQASISCRSSQSLVHSNGNTYLHWYLQKPGQSPKLLIYKVSNRFSGVPDRFSGSGSGTDFTLKIRRVEAEDLGVYFCSQSTHVPWTFGGGTKLEIK
notes: Mouse hybridoma antibody, detected with anti-mouse IgG Fc; also called 16E3H3 (from mouse); 16E3H3 clone
An MFI [1] of 77.6, an MFI [2] of 463 and an MFI [3] of 25.3 were found for B2 in this work.

B3: 73B4F10 (mouse monoclonal anti-B7-H4 antibody) (antibody, V domains shown)
VH: QVQLQQPGTELVKPGASVKLSCKASGYTFTSYWMHWVKQRPGQGLERIGHINPSNGGTNYNEKFKKKATLTVDKSSSTAYMQLSSLTSEDSAVYYCARSEFYYGTVFAYWGQGTLVTVSA
VL: DVLMTQTPLSLPVSLGDQASISCRSSQSIVHGNGNTYLEWYLQKPGQSPKLLIYKVSNRFSGVPDRFSGSGSGTDFTLKISRVEAEDLGVYYCFQGSHDPPTFGGGTKLEIK
notes: Mouse hybridoma antibody, detected with anti-mouse IgG Fc; also called 73B4F10 (from mouse)
An MFI [1] of 20.1, an MFI [2] of 29 and an MFI [3] of 5.95 were found for B3 in this work.

B4: 16E3H3 M1 x 1A10 M12 anti-B7-H4/anti-4-1BB bispecific antibody (bispecific antibody, human IgG1, kappa, N297A)
heavy: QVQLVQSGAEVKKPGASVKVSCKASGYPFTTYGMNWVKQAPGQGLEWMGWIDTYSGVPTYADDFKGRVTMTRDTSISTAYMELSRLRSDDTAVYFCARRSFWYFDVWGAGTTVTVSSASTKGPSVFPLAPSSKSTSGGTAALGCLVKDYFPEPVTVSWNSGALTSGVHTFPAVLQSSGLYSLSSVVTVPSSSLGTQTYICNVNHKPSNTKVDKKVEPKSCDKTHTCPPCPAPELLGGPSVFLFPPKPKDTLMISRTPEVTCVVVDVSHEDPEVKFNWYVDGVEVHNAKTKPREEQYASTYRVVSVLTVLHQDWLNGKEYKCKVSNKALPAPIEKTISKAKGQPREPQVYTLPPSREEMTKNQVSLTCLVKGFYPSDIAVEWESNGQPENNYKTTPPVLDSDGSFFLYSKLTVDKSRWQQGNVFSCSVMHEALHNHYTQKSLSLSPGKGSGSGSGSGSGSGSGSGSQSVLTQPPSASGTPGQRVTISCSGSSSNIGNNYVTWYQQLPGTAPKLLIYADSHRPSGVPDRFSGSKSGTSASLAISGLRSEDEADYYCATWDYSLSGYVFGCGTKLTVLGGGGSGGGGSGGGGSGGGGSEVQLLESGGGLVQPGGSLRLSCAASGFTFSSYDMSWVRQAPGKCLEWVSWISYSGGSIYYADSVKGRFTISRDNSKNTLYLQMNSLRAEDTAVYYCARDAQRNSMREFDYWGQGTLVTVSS
light: DVVMTQSPLSLPVTLGQPASISCRSSQSLVHSNANTYLHWYLQRPGQSPRLLIYKVSNRFSGVPDRFSGSGSGTDFTLKISRVEAEDVGVYFCSQSTHVPWTFGGGTKVEIKRTVAAPSVFIFPPSDEQLKSGTASVVCLLNNFYPREAKVQWKVDNALQSGNSQESVTEQDSKDSTYSLSSTLTLSKADYEKHKVYACEVTHQGLSSPVTKSFNRGEC
notes: IgG-scFv format: anti-B7-H4 IgG1 (N297A) heavy chain, (GS)9 linker, anti-4-1BB scFv 1A10 M12 (VL-(GGGGS)4-VH) at the C-terminus; also called B10317; 16E3H3 M1×1A10M12
For B4, the binding result (B7-H6) was “no binding (tested: 100 nM)”, the binding result (B7-H2) was “no binding (tested: 100 nM)” and the Kd [4] was 4.01 nM. It also gave a koff [4] of 0.000899 s⁻¹, a kon [4] of 224000 M⁻¹ s⁻¹ and an EC50 [5] of 6.46 nM. For the same binder, the binding result (B7-2) was “no binding (tested: 100 nM)”, the Kd (recombinant human B7-H4) was 4.36 nM and the koff (recombinant human B7-H4) was 0.00225 s⁻¹. It also gave a kon (recombinant human B7-H4) of 517000 M⁻¹ s⁻¹, a Kd [6] of 4.53 nM and a koff [6] of 0.00278 s⁻¹. For the same binder, the kon [6] was 614000 M⁻¹ s⁻¹, the EC50 [7] was 10.3 nM and the “EC50 (nM) [NF-kB assay], with B-CAG-hB7-H4 MC38 cells” value [8] was 0.093 nM. The “EC50 (nM) [NF-kB assay], with CAMA-1 cells” value [8] was 0.145 nM, the “EC50 (nM) [NF-kB assay], with HCC1954 cells” value [8] was 0.647 nM and the “EC50 (nM) [NF-kB assay], with MDA-MB-468 cells” value [8] was 0.403 nM. The “EC50 (nM) [NF-kB assay], with MX-1 cells” value [8] was 0.184 nM, the “EC50 (nM) [NF-kB assay], with OVCAR3 cells” value [8] was 0.288 nM and the “EC50 (nM) [NF-kB assay], with SK-BR3 cells” value [8] was 0.234 nM. The “Fold of Induction [NF-kB assay], with B-CAG-hB7-H4 MC38 cells” value [8] was 76.1 fold, the “Fold of Induction [NF-kB assay], with CAMA-1 cells” value [8] was 44.3 fold and the “Fold of Induction [NF-kB assay], with CHOK1 cells (B7-H4 negative)” value [8] was 1.49 fold. The “Fold of Induction [NF-kB assay], with HCC1954 cells” value [8] was 3.01 fold, the “Fold of Induction [NF-kB assay], with MC38 cells (B7-H4 negative)” value [8] was 2.32 fold and the “Fold of Induction [NF-kB assay], with MDA-MB-468 cells” value [8] was 6.74 fold. For the same binder, the “Fold of Induction [NF-kB assay], with MX-1 cells” value [8] was 62.9 fold, the “Fold of Induction [NF-kB assay], with OVCAR3 cells” value [8] was 5.02 fold and the “Fold of Induction [NF-kB assay], with PANC1 cells (B7-H4 negative)” value [8] was 1.11 fold. For the same binder, the “Fold of Induction [NF-kB assay], with SK-BR3 cells” value [8] was 30.8 fold and the binding result (B7-1) was “no binding (tested: 100 nM)”.

Reference: patent US20240383983A1 (ABL BIO, published 2024)
